Assay results published in the MegaScale stability set (Tsuboyama et al. 2023).

B1: 6NMW (parent)
chain: QGDIVVALYPYDGIHPDDLSFKKGEKMKVLEEHGEWWKAKSLLTKKEGFIPSNYVAKLN

Variants of: B1
Assay: folding stability dG (cDNA display proteolysis); higher = more stable
Conditions: PBS, room temperature

Variant	folding stability dG
K46R	3.66 kcal/mol
K46N	3.02 kcal/mol
K46H	2.64 kcal/mol
K46I	2.34 kcal/mol
Y9D	1.08 kcal/mol
Y9S	1.95 kcal/mol
Y9Q	3.15 kcal/mol
Y9N	1.61 kcal/mol
Y9H	2.81 kcal/mol
Y9V	2.5 kcal/mol
Y9R	4.07 kcal/mol
Y9L	3.06 kcal/mol
Y9F	3.72 kcal/mol
G48C	0.255 kcal/mol
M27H	-0.396 kcal/mol
L42K	0.463 kcal/mol
L42A	0.615 kcal/mol
L42W	1.06 kcal/mol
L42P	-0.897 kcal/mol
L42N	0.819 kcal/mol
L42C	4.16 kcal/mol
L42D	0.832 kcal/mol
G13M	1.91 kcal/mol
G13S	3.39 kcal/mol

Variant	folding stability dG
G13W	0.736 kcal/mol
G13F	0.38 kcal/mol
G13I	0.929 kcal/mol
G13Q	2.01 kcal/mol
G13Y	0.268 kcal/mol
L58A	2.62 kcal/mol
L58R	1.73 kcal/mol
L58I	3.89 kcal/mol
L58C	3.88 kcal/mol
L58D	2.77 kcal/mol
L58Y	3.52 kcal/mol
L58G	1.84 kcal/mol
L8S	0.987 kcal/mol
L8H	1.06 kcal/mol
L8W	1.21 kcal/mol
L8K	2.3 kcal/mol
L8D	-0.146 kcal/mol
L8F	1.24 kcal/mol
L8E	0.697 kcal/mol
L8R	1.94 kcal/mol
L8N	1.23 kcal/mol
H33K	3.38 kcal/mol
H33L	3.41 kcal/mol
H33I	3.23 kcal/mol

Variant	folding stability dG
H33A	3.01 kcal/mol
H33T	3.12 kcal/mol
H33W	3.34 kcal/mol
H33N	3.62 kcal/mol
H33M	3.29 kcal/mol
A7T	1.07 kcal/mol
A7S	1.39 kcal/mol
A7V	0.268 kcal/mol
A7E	0.11 kcal/mol
F49A	1.48 kcal/mol
F49K	2.81 kcal/mol
F49W	4.88 kcal/mol
F49V	2.3 kcal/mol
F49P	-0.719 kcal/mol
F49G	0.912 kcal/mol
F49T	2.25 kcal/mol
W36V	3.3 kcal/mol
W36N	2.13 kcal/mol
W36L	2.85 kcal/mol
W36I	3.52 kcal/mol
W36G	0.695 kcal/mol
W36S	2.15 kcal/mol
W36H	2.3 kcal/mol
W36P	1.14 kcal/mol

Variant	folding stability dG
L19T	0.168 kcal/mol
L19Y	0.613 kcal/mol
L19S	-0.898 kcal/mol
L19D	-0.824 kcal/mol
L19F	1.02 kcal/mol
L19I	1.46 kcal/mol
K23L	2.79 kcal/mol
K23Y	2.51 kcal/mol
K23D	1.3 kcal/mol
K23Q	3.22 kcal/mol
K23S	2.34 kcal/mol
K23M	2.89 kcal/mol
D17E	3.72 kcal/mol
D17V	2.23 kcal/mol
D17N	3.83 kcal/mol
D17M	3.47 kcal/mol
D17F	3.71 kcal/mol
D17R	4.21 kcal/mol
D17A	3.37 kcal/mol
S52A	4.05 kcal/mol
S52P	3.65 kcal/mol
S52V	3.02 kcal/mol
S52G	2.51 kcal/mol
S52K	4.84 kcal/mol

Variant	folding stability dG
S52I	2.91 kcal/mol
S52R	4.29 kcal/mol
W37F	4.79 kcal/mol
W37I	3.96 kcal/mol
W37C	3.04 kcal/mol
W37E	-0.118 kcal/mol
D3N	3.87 kcal/mol
D3E	3.77 kcal/mol
D3H	4.61 kcal/mol
D3L	4.43 kcal/mol
D3A	4.25 kcal/mol
D3K	4.12 kcal/mol
D3C	4.72 kcal/mol
V6T	2.18 kcal/mol
V6S	1.15 kcal/mol
V6I	4.06 kcal/mol
V6C	3.01 kcal/mol
V6N	0.282 kcal/mol
E47V	4.3 kcal/mol
E47C	3.83 kcal/mol
E47K	2.55 kcal/mol
E47S	3.47 kcal/mol
E47L	2.59 kcal/mol
E47W	2.14 kcal/mol

Variant	folding stability dG
E47I	4.37 kcal/mol
K22Q	3.49 kcal/mol
K22S	3.08 kcal/mol
K22N	2.67 kcal/mol
K22V	3.82 kcal/mol
K22G	2.74 kcal/mol
K22I	3.84 kcal/mol
K22A	3.17 kcal/mol
K22M	3.46 kcal/mol
K22C	3.28 kcal/mol
P16S	2.98 kcal/mol
P16Y	2.59 kcal/mol
P16A	3.29 kcal/mol
P16D	3.22 kcal/mol
I50P	-0.401 kcal/mol
I50C	0.571 kcal/mol
D18Q	4.95 kcal/mol
D18T	3.97 kcal/mol
D18V	3.08 kcal/mol
D18E	4.6 kcal/mol
D18F	4.07 kcal/mol
D18C	4.07 kcal/mol
D18R	3.15 kcal/mol
D18M	3.67 kcal/mol

Variant	folding stability dG
D18N	2.88 kcal/mol
D18G	3.33 kcal/mol
D18I	2.69 kcal/mol
A56P	0.083 kcal/mol
A56I	4.4 kcal/mol
A56M	4.36 kcal/mol
A56E	3.61 kcal/mol
A56Q	3.85 kcal/mol
A56D	2.03 kcal/mol
K40R	4.32 kcal/mol
K40L	3.84 kcal/mol
K40E	2.86 kcal/mol
K40G	1.1 kcal/mol
K40A	3 kcal/mol
K40M	4.1 kcal/mol
E35M	4.06 kcal/mol
E35Q	3.92 kcal/mol
E35P	3.64 kcal/mol
E35T	3.73 kcal/mol
N53A	4.07 kcal/mol
N53V	2.88 kcal/mol
N53F	3.06 kcal/mol
N53R	4.09 kcal/mol
